Experimental data taken from patent US20120282269A1 (Boehringer Ingelheim, published 2012).
Positions count from the first letter of the chain named. Several values for one entry are separate records, joined by “and”; a condition that tells them apart may be missing. Equal entries are not always repeated. Where two headings read alike, the source gives them in different places.

Tests used:
Assay in all cases: cell-based or functional assay
[1] = molecular target: natural human IL-23 from activated THP-1 cells (human) (UniProt P29460)
[2] = molecular target: recombinant human IL-23 (human) (UniProt P29460)
recombinant human IL-23 [3] = molecular target: T1, recombinant human IL-23 (human, UniProt P29460 23-328)
T1 sequence 1: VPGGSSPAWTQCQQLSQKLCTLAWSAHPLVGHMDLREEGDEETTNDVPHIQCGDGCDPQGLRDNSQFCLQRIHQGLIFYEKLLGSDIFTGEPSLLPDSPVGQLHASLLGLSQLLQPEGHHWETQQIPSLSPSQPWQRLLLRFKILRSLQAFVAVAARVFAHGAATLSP
T1 sequence 2: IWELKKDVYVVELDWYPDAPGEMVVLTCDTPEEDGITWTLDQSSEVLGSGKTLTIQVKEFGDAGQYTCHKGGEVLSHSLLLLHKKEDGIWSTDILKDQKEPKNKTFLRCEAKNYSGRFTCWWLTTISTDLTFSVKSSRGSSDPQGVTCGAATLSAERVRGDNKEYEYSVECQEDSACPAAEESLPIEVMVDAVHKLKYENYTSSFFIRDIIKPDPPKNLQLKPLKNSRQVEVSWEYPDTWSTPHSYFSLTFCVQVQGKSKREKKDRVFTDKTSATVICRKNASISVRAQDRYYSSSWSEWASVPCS

recombinant human IL-23 [4] = molecular target: T1, recombinant human IL-23; remark: listed apart in the source
[5] = molecular target: T2, natural human IL-23 from activated THP-1 cells (human, UniProt P29460 23-328)
T2 sequence 1: T1 sequence 1
T2 sequence 2: T1 sequence 2

human IL-12 = molecular target: T3, human IL-12 (human, UniProt P29459 23-219; P29460 23-328)
T3 sequence (looked up) 1: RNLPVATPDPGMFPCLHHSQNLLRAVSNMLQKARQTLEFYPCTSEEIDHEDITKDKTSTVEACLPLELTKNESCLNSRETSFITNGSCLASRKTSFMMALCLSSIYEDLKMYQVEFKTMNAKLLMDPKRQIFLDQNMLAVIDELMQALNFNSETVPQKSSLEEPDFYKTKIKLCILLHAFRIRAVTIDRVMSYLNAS
T3 sequence (looked up) 2: T1 sequence 2

recombinant human IL-23 [6] = molecular target: T1, recombinant human IL-23; remark: listed apart in the source

B1: Antibody C1273 (disclosed in WO 2007/005955) (antibody, from another filing, V domains shown)
VH: DVNLVESGGGLVKPGGSLKLSCAASGFTFSSYTMSWVRQTPEKRLEWVATISSGGTYTYYPDSVKGRFTISRDNAKNTLYLQMSSLKSEDTAMFYCTRDNHAYDRGPFFDYWGQGATLTVSS
VL: DIVMSQSPSSLVVSVGEKVTMSCKSSQNLFYRSNQKNHLAWYQQKPGQSPTLLIYWTSTRESGVPDRFTGSGSGTDFTLTISRVKAEDLAVYYCQQYYSYPPTFGGGTKLEIK
[1]
  IC50, inhibition of IL-17 production from IL-23 stimulated mouse splenocytes: 0.093 nM and 0.044 nM
[2]
  IC50, inhibition of IL-23 induced STAT3 phosphorylation in human DB cells: 0.163 nM and 0.438 nM

B2: Antibody 6H12 (disclosed in WO 2007/027714) (antibody, from another filing, V domains shown)
VH: EVHLQQSGPELVKPGASVKMSCKASGYTFNRYLIHWVKQKPGQGLEWIGYINPNNDGTNYNEKFKGKATLTSDKSSSTAYMELSSLTSEDSAVYYCAANWDQAYWGQGTLVTVSA
VL: DIVMTQSPATLSVTPGDRVSLSCRASQSISDYLHWYQQKSHESPRLLIKYTSQSISGIPSRFSGSGSGSDFTLSINSVEPEDVGVYYCQNGHSFPFTFGSGTKLEIKR
Recombinant human IL-23 [3]
  IC50, inhibition of IL-17 production from IL-23 stimulated mouse splenocytes: 1.6 nM and 0.806 nM and 1.3 nM

B3: Chimeric 6B8 (antibody, IgG1, V domains shown)
VH: QVQLQQSDAELVKPGTSVKTSCKISGNTFTDQTIHWMKQRPEQGLEWIGYIYPRDDSPKYNENFKGKATLTADKSSSTAYMQLNSLTSEDSAVYFCAIPDRSGYAWFIYWGQGTLVTVSS
VL: DIVMTQSHKFLSTSVGDRVTITCKASRDVAIAVAWYQQKPGQSPKLLLFWASTRHTGVPDRFTGSGSRTDFTLTISNVQSEDLADYFCHQYSSYPFTFGSGTKLEIK
Recombinant human IL-23 [4]
  IC50, inhibition of IL-17 production from IL-23 stimulated mouse splenocytes: 0.026 nM and 0.037 nM and 0.057 nM
[5]
  IC50, inhibition of IL-17 production from IL-23 stimulated mouse splenocytes: 0.005 nM and 0.002 nM and 0.006 nM and 0.003 nM
Human IL-12
  Average pg/ml IFN-γ +/- Standard Deviation, human PHA-derived T cell blasts with 1 ng/ml IL-12 (no antibody: 532 +/- 51; unstimulated: 87 +/- 7): 523 pg/mL

B4: Antibody A (antibody, human IgG1, kappa, L234A L235A, V domains shown)
VH: QVQLVQSGAEVKKPGSSVKVSCKASGYTFTDQTIHWMRQAPGQGLEWIGYIYPRDDSPKYNENFKGKVTITADKSTSTAYMELSSLRSEDTAVYYCAIPDRSGYAWFIYWGQGTLVTVSS
VL: DIQMTQSPSSLSASVGDRVTITCKASRDVAIAVAWYQQKPGKVPKLLIYWASTRHTGVPSRFSGSGSRTDFTLTISSLQPEDVADYFCHQYSSYPFTFGSGTKLEIKR
Recombinant human IL-23 [4]
  IC50, inhibition of IL-17 production from IL-23 stimulated mouse splenocytes: 0.005 nM and 0.015 nM
[5]
  IC50, inhibition of IL-17 production from IL-23 stimulated mouse splenocytes: 0.001 nM
Human IL-12
  Average pg/ml IFN-γ +/- Standard Deviation, human PHA-derived T cell blasts with 1 ng/ml IL-12 (no antibody: 532 +/- 51; unstimulated: 87 +/- 7): 497 pg/mL

B5: Antibody B (antibody, human IgG1, kappa, L234A L235A, V domains shown)
VH: B4 VH with Y27F, M37V, I48M, I70L
VL: B4 VL
Recombinant human IL-23 [6]
  IC50, inhibition of IL-23 induced STAT3 phosphorylation in human DB cells: 0.073 nM and 0.084 nM
[5]
  IC50, inhibition of IL-17 production from IL-23 stimulated mouse splenocytes: 0.009 nM and 0.008 nM
Human IL-12
  Average pg/ml IFN-γ +/- Standard Deviation, human PHA-derived T cell blasts with 1 ng/ml IL-12 (no antibody: 532 +/- 51; unstimulated: 87 +/- 7): 537 pg/mL

B6: Antibody C (antibody, human IgG1, kappa, L234A L235A, V domains shown)
VH: B4 VH
VL: B4 VL with I48L, Y49F, S60D, R68G, V83L, F87Y, S100Q
Recombinant human IL-23 [6]
  IC50, inhibition of IL-23 induced STAT3 phosphorylation in human DB cells: 0.132 nM and 0.08 nM
[5]
  IC50, inhibition of IL-17 production from IL-23 stimulated mouse splenocytes: 0.016 nM and 0.032 nM
Human IL-12
  Average pg/ml IFN-γ +/- Standard Deviation, human PHA-derived T cell blasts with 1 ng/ml IL-12 (no antibody: 532 +/- 51; unstimulated: 87 +/- 7): 495 pg/mL

B7: Antibody D (antibody, human IgG1, kappa, L234A L235A, V domains shown)
VH: B4 VH with Y27F, M37V, I48M, I70L
VL: B4 VL with I48L, Y49F, S60D, R68G, V83L, F87Y, S100Q
Recombinant human IL-23 [6]
  IC50, inhibition of IL-23 induced STAT3 phosphorylation in human DB cells: 0.158 nM
Recombinant human IL-23 [4]
  IC50, inhibition of IL-17 production from IL-23 stimulated mouse splenocytes: 0.236 nM and 0.225 nM and 0.614 nM and 0.458 nM
[5]
  IC50, inhibition of IL-17 production from IL-23 stimulated mouse splenocytes: 0.133 nM and 0.125 nM
Human IL-12
  Average pg/ml IFN-γ +/- Standard Deviation, human PHA-derived T cell blasts with 1 ng/ml IL-12 (no antibody: 532 +/- 51; unstimulated: 87 +/- 7): 539 pg/mL

B8: 34D9 (antibody, V domains shown)
VH: EVQLQQSGPELVKPGASVKIPCKASGYTFTDYNMDWVKKSHGKSLEWIGDINPHNGGTIYNQKFKGKATLTVDKSSSTAHMELRSLTSEDTAVYYCARNYYGSSYGWYFDVWGTGTTVTVSS
VL: DIMMTQSHKFMSTSVGDRVSITCKASQDVGNAVVWYQQKPGQSPKLLIYWASTRHIGVPDRFTGSGSGTDFTLTITNVQSEDLADYFCQQYSSYLTFGAGTKLELK
Recombinant human IL-23 [4]
  IC50, inhibition of IL-17 production from IL-23 stimulated mouse splenocytes: 0.51 nM
[5]
  IC50, inhibition of IL-17 production from IL-23 stimulated mouse splenocytes: 0.456 nM

B9: Chimeric 18E5 (antibody, V domains shown)
VH: EVQLQQSGPELVKPGAAVKMSCKASGYTFTRYLIHWVKQKPGQGLEWIGYINPYNDGTKYNEKFKGKATLTSDKSSSTAYMELSSLTSEDSAVYYCTSNWDLDYWGQGTTLTVSS
VL: DIVMTQSPATLSVTPGDRVSLSCRASQSISDYLYWYQQKSHESPRLLIKFASQSISGIPSRFTGSGSGSDFTLSIDSVEPDDVGVFFCQNGHSFPFTFGGGTKLEIK
Recombinant human IL-23 [4]
  IC50, inhibition of IL-17 production from IL-23 stimulated mouse splenocytes: 0.031 nM
Human IL-12
  Average pg/ml IFN-γ +/- Standard Deviation, human PHA-derived T cell blasts with 1 ng/ml IL-12 (no antibody: 532 +/- 51; unstimulated: 87 +/- 7): 511 pg/mL

B10: Chimeric 24A5 (antibody, V domains shown)
VH: EVQLQQSGPELVKPGASVKMSCKASGYTFTTSIMHWVKQKPGQGLEWIGYINPYDDVTKYNEKFKGKATLTSDKSSSTAYMELSSLTSEDSAVYYCVRRWDEAYWGQGTLVTVSA
VL: B9 VL with D17N, Y34H, F50Y, T63S, D70N, D76N, D81E, F86Y, F87Y, G100S
Recombinant human IL-23 [4]
  IC50, inhibition of IL-17 production from IL-23 stimulated mouse splenocytes: 0.404 nM
[5]
  IC50, inhibition of IL-17 production from IL-23 stimulated mouse splenocytes: 0.095 nM and 0.102 nM
